Type in all cases: cell-based, human
One assay has as its system PDX1 gene expression. Description: Q-PCR of PDX1 gene expression in hESC-derived definitive endoderm cultures. The conditions noted are these: for PDX1 induction over RA alone: added to 1 μM RA on day four, ninety six hours (FIG. 37A). How it is done:
(§1) Human embryonic stem cells were cultured with or without activins for four days. On day four, 1 μM RA and 50 ng/ml FGF-10 were added to the cell culture. Forty-eight hours after the RA/FGF-10 addition, the expression of the PDX1 marker gene and other marker genes not specific to foregut endoderm were quantitated by Q-PCR.
(§2) As in the previous Example, hESCs were cultured with or without activins for four days. On day four, the cells were treated with one of the following: 1 μM RA alone; 1 μM RA in combination with either FGF-4 or FGF-10; or 1 μM RA in combination with both FGF-4 and FGF-10. The expression of PDX1, SOX7 and NFM were quantitated by Q-PCR ninety six hours after RA or RA/FGF.
Human embryonic stem cells were cultured with or without activins for four days. On day four, FGF-10 at 50 ng/ml was added to the culture in combination with RA at 0.04 μM, 0.2 μM or 1.0 μM. The expression of the PDX1 marker gene as well as other markers not specific for foregut endoderm were quantitated by Q-PCR.
Human embryonic stem cells were induced to differentiate to definitive endoderm by treatment of undifferentiated hES cells grown on mouse embryonic fibroblast feeders with high dose activin A (100-200 ng/ml in 0.5-2% FBS/DMEM/F12) for 4 days. The no activin A control received 0.5-2% FBS/DMEM/F12 with no added activin A. At four days, cultures received either no activin A in 2% FBS (none), and in 2% serum replacement (SR), or 50 ng/ml activin A together with 2 μM RA and 50 ng/ml FGF-10 in 2% FBS/DMEM/F12 (none, +FBS, +B27) and similarly in 2% Serum replacement (SR). B27 supplement, (Gibco/BRL), was added as a 1/50 dilution directly into 2% FBS/DMEM/F12 (+B27). Duplicate cell samples where taken for each point, and total RNA was isolated and subjected to Q-PCR as previously described.
Human embryonic stem cells were induced to differentiate to definitive endoderm by treatment of undifferentiated hESCs grown on mouse embryonic fibroblast feeders with high dose activin A (50 ng/ml) in low serum/RPMI for 6 days. The FBS dose was 0% on day one, 0.2% on day two and 2% on days 3-6. The negative control for definitive endoderm production (NF) received 2% FBS/RPMI with no added activin A. In order to induce PDX1 expression, each of the cultures received retinoic acid at 2 μM in 2% FBS/RPMI on day 6. The cultures treated with activin A on days one through five were provided with different dosing combinations of activin A and activin B or remained in activin A alone at 50 ng/ml. The no activin A control culture (NF) was provided neither activin A nor activin B. This RA/activin treatment was carried out for 3 days at which time PDX1 gene expression was measured by Q-PCR from duplicate cell samples.
The definitive endoderm cultures generated by 5 days of activin A treatment were then induced to differentiate to PDX1 expressing endoderm by the addition of RA in 2% FBS/RPMI containing activin A at 25 ng/ml for four days. The RA was 2 μM for the first two days of addition, 1 μM on the third day and 0.5 μM on the fourth day. This base medium for PDX1 induction was provided fresh (2A25R) or after conditioning for 24 hours by one of four different cell populations. Conditioned media (CM) were generated from either mouse embryonic fibroblasts (MEFCM) or from hESCs that were first differentiated for 5 days by one of three conditions; i) 3% FBS/RPMI (CM2), or ii) activin A (CM3) or iii) bone morphogenic protein 4 (BMP4) (CM4). […]

Assay [1] concerns definitive endoderm cells. The assay is described as follows: Maintenance and expansion of definitive endoderm cells in culture. The note with it: in the presence of activin. The text has this: Definitive endoderm cells produced by methods described herein have been maintained and expanded in culture in the presence of activin for greater than 50 days without appreciable differentiation. In such cases, SOX17, CXCR4, MIXL1, GATA4, HNF3β expression is maintained over the culture period. Additionally, TM, SPARC, OCT4, AFP, SOX7, ZIC1 and BRACH were not detected in these cultures. It is likely that such cells can be maintained and expanded in culture for substantially longer than 50 days without appreciable differentiation.

The test system of a further assay is definitive endoderm. Description: Dorsal / ventral / PDX1-negative foregut endoderm differentiation from definitive endoderm (marker gene expression). The note with it: for specification of definitive endoderm into foregut endoderm: FGF10 5-500 ng/ml, KAAD-cyclopamine 0.1-2 μM.
For another assay, the system named is SOX17 gene expression. Description: Q-PCR of SOX17 gene expression in differentiating hESCs. The conditions noted are these: added to activin A and activin B treated cultures (FIG. 23). As to the method: In the following experiments, real-time quantitative RT-PCR (Q-PCR) was the primary assay used for screening the effects of various treatments on hESC differentiation. In particular, real-time measurements of gene expression were analyzed for multiple marker genes at multiple time points by Q-PCR. Marker genes characteristic of the desired as well as undesired cell types were evaluated to gain a better understanding of the overall dynamics of the cellular populations. The strength of Q-PCR analysis includes its extreme sensitivity and relative ease of developing the necessary markers, as the genome sequence is readily available. Furthermore, the extremely high sensitivity of Q-PCR permits detection of gene expression from a relatively small number of cells within a much larger population. In addition, the ability to detect very low levels of gene expression provides indications for “differentiation bias” within the population. The bias towards a particular differentiation pathway, prior to the overt differentiation of those cellular phenotypes, is unrecognizable using immunocytochemical techniques. […] Additionally, Q-PCR provides a mechanism by which to evaluate the success of a differentiation protocol in a quantitative format at semi-high throughput scales of analysis.
The approach taken here was to perform relative quantitation using SYBR Green chemistry on a Rotor Gene 3000 instrument (Corbett Research) and a two-step RT-PCR format. Such an approach allowed for the banking of cDNA samples for analysis of additional marker genes in the future, thus avoiding variability in the reverse transcription efficiency between samples.
To generate PCR template, total RNA was isolated using RNeasy (Qiagen) and quantitated using RiboGreen (Molecular Probes). Reverse transcription from 350-500 ng of total RNA was carried out using the iScript reverse transcriptase kit (BioRad), which contains a mix of oligo-dT and random primers. Each 20 μL reaction was subsequently diluted up to 100 μL total volume and 3 μL was used in each 10 μL Q-PCR reaction containing 400 nM forward and reverse primers and 5 μL 2×SYBR Green master mix (Qiagen). Two step cycling parameters were used employing a 5 second denature at 85-94° C. (specifically selected according to the melting temp of the amplicon for each primer set) followed by a 45 second anneal/extend at 60° C. Fluorescence data was collected during the last 15 seconds of each extension phase. A three point, 10-fold dilution series was used to generate the standard curve for each run and cycle thresholds (Ct's) were converted to quantitative values based on this standard curve. The quantitated values for each sample were normalized to housekeeping gene performance and then average and standard deviations were calculated for triplicate samples. At the conclusion of PCR cycling, a melt curve analysis was performed to ascertain the specificity of the reaction. A single specific product was indicated by a single peak at the Tm appropriate for that PCR amplicon.
A first step in establishing the Q-PCR methodology was validation of appropriate housekeeping genes (HGs) in the experimental system. […] We measured the expression levels of Cyclophilin G, hypoxanthine phosphoribosyltransferase 1 (HPRT), beta-2-microglobulin, hydroxymethylbiane synthase (HMBS), TATA-binding protein (TBP), and glucoronidase beta (GUS) in differentiating hESCs. […] We routinely used both Cyclophilin G and GUS to calculate a normalization factor for all samples. The use of multiple HGs simultaneously reduces the variability inherent to the normalization process and increases the reliability of the relative gene expression values.
We were the first to analyze and describe the effect of TGFβ family growth factors, such as Nodal/activin/BMP, for use in creating definitive endoderm cells from embryonic stem cells in in vitro cell cultures. […]

In assay [2] the test system is definitive endoderm cells. Description: Q-PCR of marker genes other than PDX1 in hESC-derived definitive endoderm cultures. The note with it: FIG. 40B. As to the method: as §1, §2
Human embryonic stem cells were cultured with or without activins for four days. […] The expression of the PDX1 marker gene as well as other markers not specific for foregut endoderm were quantitated by Q-PCR.
Human embryonic stem cells were induced to differentiate to definitive endoderm by treatment of undifferentiated hESCs grown on mouse embryonic fibroblast feeders with high dose activin A (50 ng/ml) in low serum/RPMI for 6 days. […] The no activin A control culture (NF) was provided neither activin A nor activin B. This RA/activin treatment was carried out for 3 days at which time PDX1 gene expression was measured by Q-PCR from duplicate cell samples. […]

For activin, in the assay on PDX1 gene expression (four days with or without activins, then 1 μM RA and 50 ng/ml FGF-10 for 48 hours), the “PDX1 expression in activin treated cell cultures relative to cultures that received no activin prior to RA application” value came out at 160 fold. Moreover, the “time definitive endoderm cells were maintained and expanded in culture without appreciable differentiation” value in assay [1] is listed as “greater than 50 days”. In the case of `CC1=C2C[C@H]3[C@@H](CC=C4CC(=O)CC[C@@]43C)[C@@H]2CC[C@]12O[C@@H]1C[C@H](C)CN(CCNC(=O)CCCCCNC(=O)CCc3ccccc3)[C@H]1[C@H]2C` [KAAD-cyclopamine, reference compound], the “specification of definitive endoderm into foregut endoderm” value with definitive endoderm is listed as “further specified definitive endoderm cells into the foregut endoderm domain”.

`CC1=C(/C=C/C(C)=C/C=C/C(C)=C/C(=O)O)C(C)(C)CCC1` [retinoic acid, reference compound]: the “increase in PDX1 gene expression” value in the assay with PDX1 gene expression (activin for four days followed by 1 μM RA, ninety six hours) was 60 fold.

B1: BMP4 (protein, UniProt P12644 293-408, looked up)
Bone morphogenetic protein 4: SPKHHSQRARKKNKNCRRHSLYVDFSDVGWNDWIVAPPGYQAFYCHGDCPFPLADHLNSTNHAIVQTLVNSVNSSIPKACCVPTELSAISMLYLDEYDKVVLKNYQEMVVEGCGCR
notes: bone morphogenic protein 4, member of the TGFβ family
Regarding B1, the “production of PDX1-positive ventral foregut endoderm” value in the assay with definitive endoderm (after 3 days activin 100 ng/mL, FGF10 50 ng/ml, KAAD-cyclopamine 0.5 μM, BMP4 3 ng/ml (FIGS. 52A, 52B)) is reported as “not needed”.

B2: Wnt3a (protein, UniProt P56704 19-352, looked up)
Protein Wnt-3a: SYPIWWSLAVGPQYSSLGSQPILCASIPGLVPKQLRFCRNYVEIMPSVAEGIKIGIQECQHQFRGRRWNCTTVHDSLAIFGPVLDKATRESAFVHAIASAGVAFAVTRSCAEGTAAICGCSSRHQGSPGKGWKWGGCSEDIEFGGMVSREFADARENRPDARSAMNRHNNEAGRQAIASHMHLKCKCHGLSGSCEVKTCWWSQPDFRAIGDFLKDKYDSASEMVVEKHRESRGWVETLRPRYTYFKVPTERDLVYYEASPNFCEPNPETGSFGTRDRTCNVSSHGIDGCDLLCCGRGHNARAERRREKCRCVFHWCCYVSCQECTRVYDVHTCK
notes: Wnt family growth factor
With B2, the “SOX17 expression relative to activin A and activin B alone” value with SOX17 gene expression is “increases SOX17 expression”.

B3: activin B (protein, UniProt P09529 293-407, looked up)
Inhibin beta B chain: GLECDGRTNLCCRQQFFIDFRLIGWNDWIIAPTGYYGNYCEGSCPAYLAGVPGSASSFHTAVVNQYRMRGLNPGTVNSCCIPTKLSTMSMLYFDDEYNIVKRDVPNMIVEECGCA
modifications: Inhibin beta B chain
With B3, the “increase in PDX1 expression over the culture that received only activin A at 50 ng/ml” value in the assay on PDX1 gene expression (activin B 10-50 ng/ml with 25 or 50 ng/ml activin A and 2 μM RA, 3 days (FIG. 40A)) is on record as “at least 2 fold”. Also, the HNF6 expression entry in assay [2] is reported as “without increase in HNF6 expression”.

B4: FGF-4 (protein, UniProt P08620 31-206, looked up)
Fibroblast growth factor 4: APTAPNGTLEAELERRWESLVALSLARLPVAAQPKEAAVQSGAGDYLLGIKRLRRLYCNVGIGFHLQALPDGRIGGAHADTRDSLLELSPVERGVVSIFGVASRFFVAMSSKGKLYGSPFFTDECTFKEILLPNNYNAYESYKYPGMFIALSKNGKTKKGNRVSPTMKVTHFLPRL
notes: fibroblast growth factor
On to B4, for which the “PDX1 induction over RA alone” value in the assay with PDX1 gene expression is “approximately 3 fold”.

B5: FGF-10 (protein, UniProt O15520 38-208, looked up)
Fibroblast growth factor 10: QALGQDMVSPEATNSSSSSFSSPSSAGRHVRSYNHLQGDVRWRKLFSFTKYFLKIEKNGKVSGTKKENCPYSILEITSVEIGVVAVKAINSNYYLAMNKKGKLYGSKEFNNDCKLKERIEENGYNTYASFNWQHNGRQMYVALNGKGAPRRGQKTRRKNTSAHFLPMVVHS
notes: fibroblast growth factor
Regarding B5, the “PDX1 induction over RA alone” value in the assay on PDX1 gene expression was 60 fold. Further, the “specification of definitive endoderm into foregut endoderm” value in the assay on definitive endoderm is recorded as “beneficial”.
